experiment: yeast display, Sf9 membrane polyspecificity reagent, FACS + sequencing; frameworks hold sequencing errors
Summary of the method: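 Nanobodies came from a synthetic yeast display library in Saccharomyces cerevisiae BJ5465, induced with galactose for 36–48 hours and stained for 1 hour at 4 °C with 10% biotinylated, detergent-solubilized Sf9 membrane reagent. Cells were enriched on streptavidin microbeads and then FACS-sorted, with low and high (top ~1%) gates set on anti-HA fluorescence for expression and streptavidin fluorescence for reagent binding. Each polyreactivity label reflects the gate a clone came from. Genes were amplified by colony PCR, sequenced by MiSeq 2 × 250 and filtered by CDR length.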

Sequence | polyreactivity (PSR sort gate)
QVQLVESGGGLVQAGGSLRLSCAASGFTFGYYAMGWYRQAPGKERELVAAISSRGSGTYYADSVKGRFTMSRDNAKNTVYLQLNSLKPEDTAVYYCARPSALLGYWGQGTQVTVSS | low polyreactivity
QVQLVESGGGLVQAGGSLRLSCAASGFTFGYYAMGWYRQAPGKERELVAAITYSGGSTYYADSVKGRFTISRDNAKNTVYLQMNSLKPEDTAVYYCNAYARRYYYGRWYGEFDYWGQGTQVTVSS | low polyreactivity
QVQLVESGGGLVQAGGSLRLSCAASGFTFGYYAMGWYRQAPGKERELVGAINWSGGRTYYADSVKGRFTISRDNAKNTVYLQMNSLKPEDTAVYYCAASAHYDGDYWGQGTQVTVSS | high polyreactivity
QVQLVESGGGLVQAGGSLRLSCAASGFTFGYYGMGWYRQAPGKERELVAAISWSGGSTYYADSVKGRFTISRDNEKNTVYLQMNSLKPEDTAVYYCNADYAGFYQRRYIEDDYWGQGTQVTVSS | low polyreactivity
QVQLVESGGGLVQAGGSLRLSCAASGFTFGYYGMGWYRQAPGKVRELVAAINWSGVNTNYADSVKGRFTISRDNAKNTVYLQMNSLKPEDTAVYYCAADAGYDGYGYWGQGTQVTVSS | low polyreactivity
QVQLVESGGGLVQAGGSLRLSCAASGFTFGYYTMGWYRQAPGKERELVAAISSSGGSTYYADSVKGRFTISRDNAKNTVYLQMNSLKPEDTAVYYCAARSVRYGGRYDYWGQGTQVTVSS | high polyreactivity
QVQLVESGGGLVQAGGSLRLSCAASGFTFGYYTMGWYRQAPGKERELVASISWDGGSTYYADSVKGRFTISRDNAKNTVYLQMHSLKPEDTAVYYCATDDYDQLAVGAYDYWGQGTQVTVSS | low polyreactivity
QVQLVESGGGLVQAGGSLRLSCAASGFTFHGYAMGWYRQAPGKERELVAAISSSGGRTYYADSVKGRFTISRDNAKNTVYLQMNSLKPEDPEVYYCAAKARGIYVPDGGYWGQGTQVTVSS | high polyreactivity
QVQLVESGGGLVQAGGSLRLSCAASGFTFHNNVMGWYRQAPGKERELVATISKSGGSTYYADSVKGRFTISRDNAKNTVYLQMNSLKPEDTAVYYCARRYRDYGRYGYWGQGTQVTVSS | high polyreactivity
QVQLVESGGGLVQAGGSLRLSCAASGFTFHRNAMGWYRQAPGKERELVAAISTRGGSTAYADSVKGRFTISRDNAKNTVYLQMNSLKPEDTAVYYCAARVRVTGTYYTKYDYWGQGTQVTVSS | high polyreactivity
QVQLVESGGGLVQAGGSLRLSCAASGFTFHRNAMGWYRQAPGKERELVAAITLNGGSSTYYADSVKGRFTISRDNAKNTVYLQMNSLKPEDTAVYYCARDSYSYTFSKNSDPAEYDYWGQGTQVTVSS | low polyreactivity
QVQLVESGGGLVQAGGSLRLSCAASGFTFHSYAMGWYRQAPGKERELVATISRSGGSTYYADSVKGRFTISRDNAKNTVYLQMNSLKPEDTAVYYCNKLLYGWSKPVGYDYYWGQGTQVTVSS | high polyreactivity
QVQLVESGGGLVQAGGSLRLSCAASGFTFHTYAMGWYRQAPGKERELVAAIDSSGGITYYADSVKGRFTISRDHAKNTVYLQMNSLKPEDTAVYYCAAVFLLFGFEWSYDYWGQGTQVTVSS | low polyreactivity
QVQLVESGGGLVQAGGSLRLSCAASGFTFHYYAMGWYRQAPGKEWELVAAITKSGGRTSYADSVKGRFTISRDNAKNTVYLQMNSLKPEDTAVYYCAAARYRARIGNDYWGQGTQVTVSS | low polyreactivity
QVQLVESGGGLVQAGGSLRLSCAASGFTFIDNTMGWYRQAPGKERELVAAISSDGRTNYAVSVKGRFTISRDNAKNTVYLQMNSLKAEDTAFYYCATEDNYWYVTGDLYHSAFYYWGQGTQVTVSS | low polyreactivity
QVQLVESGGGLVQAGGSLRLSCAASGFTFIPNAMGWYRQAPGKERELVADITWSGGTTYYADSVKGRFTISRDNAKNTVYLQMNSLKPEDTAVYYCNADYLFYAFDYWGQGTQVTVSS | low polyreactivity
QVQLVESGGGLVQAGGSLRLSCAASGFTFIQYAMGWYRPAPGKERELVAAMTWSGGRTYYADSVKGRFTISRDNAKNTVYLHMNSLKPEDTAVYYCAKPFNIWGQGTKVTVSS | high polyreactivity
QVQLVESGGGLVQAGGSLRLSCAASGFTFIRNAMGWYRQAPGKERELVAAISWRGVRTYADSVKGRFTISRDNAKNTVYLQMHSQKPEDTAVYYCAARDAHYYPTMGYWGQGTQVTVSS | high polyreactivity
QVQLVESGGGLVQAGGSLRLSCAASGFTFIRYAMGWDRQAPGKERELVAAISVSGGRTYYADSVKGRFTISRDNAKNTVYLQMNSLKPEDTAVYYCARRPSYYQGDYWGQGTQVTVSS | high polyreactivity
QVQLVESGGGLVQAGGSLRLSCAASGFTFIRYAMGWYRPAPGKERELVATITRRGGSTYYADSVKGRFSISRDNAKNTVYLQMNCLKPEDTAVYYCNRDYVTYGKYYYWGQGTQVTVSS | high polyreactivity
QVQLVESGGGLVQAGGSLRLSCAASGFTFIRYAMGWYRQAPGKARELVAAIRGTGTSTYYADSVKGRFTISRDNAKNTVYLQMNSLKPEDTAVYYCNKVAGRSPYTRYDYWGQGTQVTVSS | low polyreactivity
QVQLVESGGGLVQAGGSLRLSCAASGFTFISNAMGWYRQAPGKERELVAAISGRGGRTYYADSVKGRFTISRDNAKNTVYLQMNSLKPEDTAVYYCNAVFRKLHYDYWGQGTQVTVSS | high polyreactivity

Sequence | polyreactivity (PSR sort gate)
QVQLVESGGGLVQAGGSLRLSCAASGFTFIVNPMGWYRQAPGKERELVAAISWNGGSTYYADSVKGRFTISRDNAKNTVYLQMNSLKPEDTAVYYCAVLYRSEYVWGQGTQVTVSS | low polyreactivity
QVQLVESGGGLVQAGGSLRLSCAASGFTFIYNAMGWYRQAPGKERELVAAISYRTSRTYYADSVKGRFTISRDNAKNTVYLQMNSLKPEDTAVYYCAKGYGRHGLDYWGQGTQVTVSS | high polyreactivity
QVQLVESGGGLVQAGGSLRLSCAASGFTFIYNAMGWYRQAPGKERELVAAITGGGGSTYYADSVKGRFTISRDNAKYTVYLQMNSLKPEDTAVYYCNVYYPQSGVTYDYWGQGTLVTVSS | low polyreactivity
QVQLVESGGGLVQAGGSLRLSCAASGFTFIYYAMGWYRQAPGKERELVAAISTSGGRTYYADSVKGRFTISRDNAKNTVYLQMNCLKPEYTAVYYCAADGHYRYTSRYGLIVRYDYWGQGTQVTVSS | high polyreactivity
QVQLVESGGGLVQAGGSLRLSCAASGFTFKDYAMGWYRQAPGKERELVAANSRSGGSTYYADSVKGRFTNSRDSAKNTVYLQMNSLKPEDTAVYYCAAAYVRYRDPYGYWGQGTQVTVSS | high polyreactivity
QVQLVESGGGLVQAGGSLRLSCAASGFTFKFYAMGWYRQAPGKERELVAAISARGGITYYADSVKGRFTISRDNAKNTVYLQMNSLKPEDTAVYYCAAGVFGHYAFVEFDYWGQGTQVTVSS | high polyreactivity
QVQLVESGGGLVQAGGSLRLSCAASGFTFKGYAMGWYRQAPGKERELVAGITSGGRTYYADSVKGRFTISRDNAKNTVYLQMNSLKPEDTAVYYCAAVHYVAYYGYDYWGQGSQVTVSS | high polyreactivity
QVQLVESGGGLVQAGGSLRLSCAASGFTFKHYAMGWYRQATGKERELVATITRGGSTNYADSVKGRFTISRDNAKNTVYLQMNSLKPEDSAVYYCAAADYVRYPFTRGYIYQGYDYWGQGTQVTVSS | low polyreactivity
QVQLVESGGGLVQAGGSLRLSCAASGFTFKLNAMGWYRPAPGKERELVAAISWGGGTTYYADSVKGRFTISRDNAKNTVYLQMNSLKPEDTAVYYCAADGTGTYDYWGQGTQVTVSS | low polyreactivity
QVQLVESGGGLVQAGGSLRLSCAASGFTFKLNAMGWYRQAPGKERELVATISSSGGSTFYADSVKGRFTISRDNAKNTVYLQMNSLKPEDTAVYYCAADSGYGPYYYWGQGTQVTVSS | high polyreactivity
QVQLVESGGGLVQAGGSLRLSCAASGFTFKLYAMGWYRQAPGNEREWVAAIRRGGTTNYADSVKGRFTISRDTAKNTVYLQMNSLKPEDTAVYYCAADGWYPGVYYPYTEFDYWGQGTQVTVSS | high polyreactivity
QVQLVESGGGLVQAGGSLRLSCAASGFTFKYNAMGWYRQAPGKERELVASISSGSTNYADSVKGRFTISRDNAKNTVYLQMNSLKPEDTAVYYCAASVSRGKRFRYGYVFKMDYWGQGTQVTVSS | low polyreactivity
QVQLVESGGGLVQAGGSLRLSCAASGFTFKYYAMGWYRQAPGKEREFVAAISRSGGSTTYADSVKGRFTISRDNAKNTVYLQMNSLKPEDSAVYYCAVAYYTAYTPRDGEYWGQGTQVTVSS | high polyreactivity
QVQLVESGGGLVQAGGSLRLSCAASGFTFKYYAMGWYRQAPGKERELVAAIRRSAGSTNYADSVKGRFTISRDNAKNTVYLQMNSLKPEDTAVYYCNTVGTRQPMDYWGQGTLVTVSS | high polyreactivity
QVQLVESGGGLVQAGGSLRLSCAASGFTFKYYAMGWYRQAPGKERELVAAISRGGSTYYADSVKGRFTFSRDNAKNTVYLQMNSLKPEDTAVYYCAARYVRVGYDYWGQGTQVTVSS | high polyreactivity
QVQLVESGGGLVQAGGSLRLSCAASGFTFKYYAMGWYRQAPGKERELVAAITSGGSTYADSVKGRFTISRDNAKITVYLQMNSLKPEDTAVYYCAASIDSGKWLGRRYDYWGQGTQVTVSS | low polyreactivity
QVQLVESGGGLVQAGGSLRLSCAASGFTFKYYTMGWYRQAPGKERELVAVISRTGSTNYADSVKGRFTISRDNAKNTVYLQMNSLKPEDTAVYYFITARGKYAFFDVDYWGQGTQVTVTS | high polyreactivity
QVQLVESGGGLVQAGGSLRLSCAASGFTFLGYDMGWYRQAPGKERELVATISSGGRTYYADSVKGRFTISRDNAKNTVYLQMNSMKPEDTAVYYFAAPRFRRLDFDFWGQGTQVTVSS | low polyreactivity
QVQLVESGGGLVQAGGSLRLSCAASGFTFLKNAMVWYRQAPGKERELVAAITGSGGSTYYADSVKGRFTISRDNAKNTVYLQMNSLKPEDTAVYYCNVRRGLRAYEYWGQGTQVTVSS | high polyreactivity
QVQLVESGGGLVQAGGSLRLSCAASGFTFLKYAIGWYRQAPGKERELVAAISFSTGRTYYADSVKGRFTISRDNAKNTVYLQMNSLKPEDPAVYYGAAGYWPGYSLTYRGGFWGQGTQVTVSS | high polyreactivity
QVQLVESGGGLVQAGGSLRLSCAASGFTFLSNAMGWYRQAPGKERELVATINSGGSTNYADSVKGRFTISRDNAKNTVYLQMNSLKPEDTAVYYCAAKLWRYYHYDYWGQGTQVTVSS | low polyreactivity
